The conditions of data set [1]: stated without source; cited from earlier work.
Data set [2] can be described thus: Circulating glucose by finger stick during insulin pulse treatments. The data set is classed as in vivo, human. The note with it: during the first treatment, with ingested carbohydrates; all examples. An excerpt:
In prototype testing, a commercially available LIFESCAN ONETOUCH ULTRA glucose meter was used to measure the subject's baseline and subsequent circulating blood glucose level. The glucose meter was calibrated according to the manufacturer's recommendations. A blood sampler test strip was then inserted into the blood glucose meter as directed by the manufacturer. The glucose meter automatically turned on upon proper insertion of the test strip into the meter. This commercially available glucose meter utilized a lancet to prick the subject's fingertip or arm. After pricking the skin, the user gently massages the area to help form a round drop of blood (about one micro-liter in volume) on the skin surface. The subject then caused the blood sample to be absorbed onto the blood sampler test strip per the manufacturer's recommended procedure. If adequate blood was absorbed by the blood sampler test strip, the blood glucose level was automatically calculated and shown on the instrument's display panel in approximately 5 seconds. […]
For all of the above listed examples, after the initial few days of treatment, the patients underwent treatment once a week, each treatment day consisting of three infusions of insulin accompanied by ingestion of carbohydrates. […] The patients' circulating glucose were measured once every thirty minutes by the finger stick method currently used by most diabetic patients. […]

For insulin, in data set [1], the half-life is 5 min. Further, the “rise in circulating glucose levels” value in data set [2] was in the range of 100 to 150 mg/dL.

The term half-life denotes the time needed for the level to fall by half in the phase considered.

These data come from US20060122099A1, “Method for infusing insulin to a subject to improve impaired total body tissue glucose processing” (priority 2004, published 2006).
